Results: article PMC12692543

Legend:
[1] = molecular target: rhFrizzled-4/FC Chimera (human) (UniProt Q9ULV1); assay: ELISA; rhFrizzled-4/Fc coated on a 96-well plate overnight; Norrin preparations AFTER denaturation and refolding with disulfide reshuffling (GSH/GSSG, 1 M arginine), serially diluted (0.8–500 ng/mL) in 1% BSA or casein in PBS, 2 h; detected with biotinylated Norrin antibody and streptavidin–HRP; result as percent of a comparison control (R&D Systems Norrin)
[2] = molecular target: rhFrizzled-4/FC Chimera (human) (UniProt Q9ULV1); assay: ELISA; rhFrizzled-4/Fc coated on a 96-well plate overnight; Norrin preparations as extracted from bacteria, BEFORE refolding, serially diluted (0.8–500 ng/mL) in 1% BSA or casein in PBS, 2 h; detected with biotinylated Norrin antibody and streptavidin–HRP; result as percent of a comparison control (R&D Systems Norrin)

Substance | percent of expected binding activity relative to comparison control (R&D Systems Norrin) [1] [%] | percent of expected binding activity relative to comparison control (R&D Systems Norrin) [2] [%]
Norrin^K86P released from MBP-linker-Norrin by HRV3C protease (from UniProt Q00604 25-133) (natural protein) | 101 | 14
MBP-linker-Norrin^K86P (intact, uncut fusion protein from plasmid construct Nor-w-Linker) (from UniProt Q00604 25-133) | 94 | 7
